Experiments:
[1] = target: T1, NΔ360 (derivative of EBNA1) (Epstein-Barr virus, UniProt P03211); format: biochemical
T1 construct: NΔ360 and NΔ389 have a methionine followed by amino acids 361 and 390 to the carboxy-terminus, respectively; added initiator methionine (N); made in house; host or cells: E. coli
Description: Two DNAs used as probes in this study were generated by endonuclease digestion of cloned DNAs. That with two EBNA1-binding sites is the 131 bp, SalI to PstI fragment derived from p880 (30); and that with five GAL4-binding sites is the 109 bp, HinDIII to XbaI fragment derived from G5BCAT (31). DNA fragments were purified from agarose gels. […] This method distinguishes less than two-fold differences in DNA concentrations. These DNAs were labeled with the Klenow fragment of DNA Polymerase 1 in the presence of dATP, dGTP, dTTP, and ^32P α-dCTP (Amersham), and precipitated three times to remove unincorporated label (32).
The derivatives of EBNA1 (bEBNA1, NΔ360, NΔ389) and the GAL4 derivatives (GAL4(1-94), GAL4(1-94)&54-89, GAL4(1-94)&331-361, GAL4(1-94)&372-391) used in this study were all produced and purified as previously described (28). Briefly, bEBNA1 lacks amino acids 2 through 7 and all but fifteen amino acids of the gly-gly-ala repeats and was expressed in SF21 cells (23). NΔ360 and NΔ389 lack the first 360 and 389 amino acids, respectively, and were expressed in E. coli. GAL4(1-94) contains amino acids 1 to 94 of the yeast transactivator GAL4 plus eight carboxy-terminal amino acids coded by the poly-cloning region. The fusions designated GAL4(1-94)&#—# contain the indicated residues from EBNA1 cloned in frame into the poly-cloning region. All derivatives and fragments of EBNA1 were derived from the B95-8 viral strain (33, 15).
A.A. 40-89 and A.A. 331-391 were generated by amplifying the fragment of EBNA1 encoding those amino acids with PCR primers containing SalI and XbaI sites at the 5′ ends. […] The sequence of both clones was verified using an ABI Prism automated sequencer (Applied BioSystems). Expression of the fusion proteins in BL21 bacteria containing a DE3 lysogen and carrying pLysS was done as previously described (28). […]
Gel shift assays were done as previously described (28). […] The percentage of DNA linked is determined by dividing the amount of linked DNA by the total amount of DNA in the lane. […]

[2] = target: bEBNA1 (derivative of EBNA1); format: biochemical, Epstein-Barr virus
Method: Two DNAs used as probes in this study were generated by endonuclease digestion of cloned DNAs. That with two EBNA1-binding sites is the 131 bp, SalI to PstI fragment derived from p880 (30); and that with five GAL4-binding sites is the 109 bp, HinDIII to XbaI fragment derived from G5BCAT (31). DNA fragments were purified from agarose gels. They were quantified by making serial dilutions in the presence of ethidium bromide (0.5 μg/mL) and comparing their intensities, when exposed to ultraviolet light, to that of similar dilutions of a standard DNA. This method distinguishes less than two-fold differences in DNA concentrations. These DNAs were labeled with the Klenow fragment of DNA Polymerase 1 in the presence of dATP, dGTP, dTTP, and ^32P α-dCTP (Amersham), and precipitated three times to remove unincorporated label (32).
The derivatives of EBNA1 (bEBNA1, NΔ360, NΔ389) and the GAL4 derivatives (GAL4(1-94), GAL4(1-94)&54-89, GAL4(1-94)&331-361, GAL4(1-94)&372-391) used in this study were all produced and purified as previously described (28). Briefly, bEBNA1 lacks amino acids 2 through 7 and all but fifteen amino acids of the gly-gly-ala repeats and was expressed in SF21 cells (23). […]
Gel shift assays were done as previously described (28). […] The percentage of DNA linked is determined by dividing the amount of linked DNA by the total amount of DNA in the lane.

T1 sequence (P03211 361-641, stated change not applied): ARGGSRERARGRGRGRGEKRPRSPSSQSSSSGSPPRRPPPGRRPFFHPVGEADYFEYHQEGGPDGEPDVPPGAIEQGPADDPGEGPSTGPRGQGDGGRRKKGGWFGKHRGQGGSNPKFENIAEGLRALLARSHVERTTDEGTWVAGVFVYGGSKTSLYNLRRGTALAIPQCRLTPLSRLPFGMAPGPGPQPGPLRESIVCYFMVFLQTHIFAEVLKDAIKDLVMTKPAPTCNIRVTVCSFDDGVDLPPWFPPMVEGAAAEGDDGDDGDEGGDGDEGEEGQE

B1: Rnase A: control protein (protein, UniProt P61823 27-150, looked up)
Ribonuclease pancreatic: KETAAAKFERQHMDSSTSAASSSNYCNQMMKSRNLTKDRCKPVNTFVHESLADVQAVCSQKNVACKNGQTNCYQSYSTMSITDCRETGSSKYPNCAYKTTQANKHIIVACEGNPYVPVHFDASV
Ki ([1]; 6.5 nM dimers of NΔ360, 20 fmols DNA with two EBNA1-binding sites, Ki = concentration of competitor which inhibits linking to 50%, read-out: Ki against NΔ360): 30 µM | IC50 ([1]; DNAs with two EBNA1-binding sites, read-out: Concentration inhibiting linking by NΔ360 to 50%): 30 µM | Amount required to reduce linking by 50% relative to A.A. 331-391 ([1]; linking by NΔ360): Approximately 1000 fold | Ki ([2]; 6.5 nM dimers of bEBNA1, 20 fmols DNA with two EBNA1-binding sites, Ki = concentration of competitor which inhibits linking to 50%, read-out: Ki against bEBNA1): > 42 µM | Sensitivity of bEBNA1-mediated linking to competitor ([2]; DNAs with two binding sites, range of concentrations tested): insensitive

— patent US6960429B2, “Inhibition of viral gene activities” (priority 1997, dated 2005)
